Assay results: publication PMC4552487 (EMBO Reports, 2015)

How the values were obtained:
Conditions in all cases: both partners purified
[1] = target: Ser65-phosphorylated ubiquitin (ubiquitin^Phospho-Ser65) (bovine, UniProt P0CG53 1-76, phosphoserine at 65); test: ITC; ubiquitin^PhosSer65 in the syringe titrated into 50 μM wild-type or mutant Parkin in the cell; 50 mM HEPES pH 8.0, 150 mM NaCl, 500 μM TCEP; 20°C; single binding site model
[2] = target: Ser65-phosphorylated Dac-ubiquitin (Dac-ubiquitin^PhosSer65) (UniProt P0CG47 1-76, phosphoserine at 65 of ubiquitin); test: SEC; Superdex 200 Increase 10/300 GL; 50 mM Tris pH 7.5, 150 mM NaCl; 100 μg of each protein, mixtures incubated for 30 min before chromatography
[3] = target: T1, Parkin (80-465)-Biotin, wild type (UniProt O60260 80-465, biotin (position not given)); test: AlphaScreen or HTRF; GST-Ubl (1-76) on glutathione acceptor beads and Parkin (80-465)-biotin (WT or H302A) on streptavidin donor beads, 10 nM each; inhibitor proteins in three-fold 10-point dilutions; PBS + 0.1% BSA + 0.1% Triton X-100; RT
T1 sequence (looked up): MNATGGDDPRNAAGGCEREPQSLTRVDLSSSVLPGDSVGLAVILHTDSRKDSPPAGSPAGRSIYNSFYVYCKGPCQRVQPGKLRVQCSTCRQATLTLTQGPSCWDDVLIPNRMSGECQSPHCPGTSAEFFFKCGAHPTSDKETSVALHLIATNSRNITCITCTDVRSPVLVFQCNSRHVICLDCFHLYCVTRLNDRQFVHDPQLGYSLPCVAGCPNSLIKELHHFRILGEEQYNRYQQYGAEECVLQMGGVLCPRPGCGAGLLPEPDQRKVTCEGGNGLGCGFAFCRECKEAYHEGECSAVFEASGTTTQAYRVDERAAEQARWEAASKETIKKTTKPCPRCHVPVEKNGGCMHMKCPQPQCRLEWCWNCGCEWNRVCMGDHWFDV

B1: full-length Parkin Lys151Ala (K151A) mutant, untagged (enzyme, UniProt O60260 1-465, looked up)
chain: MIVFVRFNSSHGFPVEVDSDTSIFQLKEVVAKRQGVPADQLRVIFAGKELRNDWTVQNCDLDQQSIVHIVQRPWRKGQEMNATGGDDPRNAAGGCEREPQSLTRVDLSSSVLPGDSVGLAVILHTDSRKDSPPAGSPAGRSIYNSFYVYCAGPCQRVQPGKLRVQCSTCRQATLTLTQGPSCWDDVLIPNRMSGECQSPHCPGTSAEFFFKCGAHPTSDKETSVALHLIATNSRNITCITCTDVRSPVLVFQCNSRHVICLDCFHLYCVTRLNDRQFVHDPQLGYSLPCVAGCPNSLIKELHHFRILGEEQYNRYQQYGAEECVLQMGGVLCPRPGCGAGLLPEPDQRKVTCEGGNGLGCGFAFCRECKEAYHEGECSAVFEASGTTTQAYRVDERAAEQARWEAASKETIKKTTKPCPRCHVPVEKNGGCMHMKCPQPQCRLEWCWNCGCEWNRVCMGDHWFDV
B1 gave a Kd [1] of about 7 µM.

B2: Parkin 1-465 S65A (enzyme, UniProt O60260 1-465, looked up)
chain: MIVFVRFNSSHGFPVEVDSDTSIFQLKEVVAKRQGVPADQLRVIFAGKELRNDWTVQNCDLDQQAIVHIVQRPWRKGQEMNATGGDDPRNAAGGCEREPQSLTRVDLSSSVLPGDSVGLAVILHTDSRKDSPPAGSPAGRSIYNSFYVYCKGPCQRVQPGKLRVQCSTCRQATLTLTQGPSCWDDVLIPNRMSGECQSPHCPGTSAEFFFKCGAHPTSDKETSVALHLIATNSRNITCITCTDVRSPVLVFQCNSRHVICLDCFHLYCVTRLNDRQFVHDPQLGYSLPCVAGCPNSLIKELHHFRILGEEQYNRYQQYGAEECVLQMGGVLCPRPGCGAGLLPEPDQRKVTCEGGNGLGCGFAFCRECKEAYHEGECSAVFEASGTTTQAYRVDERAAEQARWEAASKETIKKTTKPCPRCHVPVEKNGGCMHMKCPQPQCRLEWCWNCGCEWNRVCMGDHWFDV
B2: binds [2].

B3: GST-Ubl (Parkin Ubl domain, residues 1-76) (domain or fragment, UniProt O60260 1-76, looked up)
chain: MIVFVRFNSSHGFPVEVDSDTSIFQLKEVVAKRQGVPADQLRVIFAGKELRNDWTVQNCDLDQQSIVHIVQRPWRK
B3: binds [3].
